Assay [1] has as its target recombinant HA, subtype H5 (A/Vietnam/1203/2004 (H5N1)) (influenza A virus A/Vietnam/1203/2004 …, UniProt Q80A26 6-554). Briefly: ELISA, coated HA, IgG 5 µg/ml. On the technique in general: In an ELISA, binding on a coated surface is turned into a signal by an enzyme label.
Assay [2] concerns the target recombinant HA, subtype H3 (A/Wyoming/3/2003(H3N2)) (influenza A virus A/Wyoming/3/2003 …). The assay is described as follows: ELISA, coated HA, IgG 5 µg/ml.
Assay [3] addresses full-length HA from isolate A/Vietnam/1194/2004 (H5N1TV) on PER.C6 cells (influenza A virus A/Vietnam/1194/2004 …, UniProt Q80A26 6-554). Briefly: flow cytometry, transfected PER.C6 cells.
For assay [4], the target named is recombinant HA, subtype H1 (A/New Caledonia/20/99 (H1N1)) (influenza A virus A/New Caledonia/20/99 …, UniProt Q289M7 18-565). The assay is described as follows: ELISA, coated HA, IgG 5 µg/ml.

B1: CR6327 (antibody, V domains shown)
VH: EVQLVETGAEVKKPGSSVKVSCKASGGTFRTHAISWVRQAPGQGLEWMGGIIAIFGTANYAQKFQGRITITADESTSTAYMELSSLRSEDTAVYFCARGSGYHISTPFDNWGQGTLVTVSS
VL: SYVLTQPPSVSVAPGQTARITCGGNNIGSKGVHWYQQKPGQAPVLVVYDDSDRPSGIPERFSGSNSGNTATLTISRVEAGDEADYYCQVWDSSSDHVVFGGGTKLTVLG
Regarding B1, the “OD 492 nm” value in assay [1] came to 1.11 OD 492 nm; in assay [2], 0.08 OD 492 nm.

B2: CR6331 (antibody, V domains shown)
VH: EVQLVESGAEVKKPGSSVKVSCKASGGTFSSYAISWVRQAPGQGLEWMGGIIGMFGTANYAQKFQGRVTITADEFTSTAYMELSSLRSEDTAVYYCARGNYYYESSLDYWGQGTLVTVSS
VL: QSVVTQPPSVSVAPGQTARITCGGNNIGSKSVHWYQQKPGQAPVLVVYDDSDRPSGIPERFSGSNSGNTATLTISRVEAGDEADYYCQVWDSSSDHYVFGTGTKVTVLG
Regarding B2, the results for the “OD 492 nm” value in assay [1] and in assay [2] were 1.32 OD 492 nm and 0.06 OD 492 nm, respectively.

B3: CR6329 (antibody, V domains shown)
VH: EVQLVQSGAEVKKPGSSVKVSCKASGGIFRSNSISWVRQAPGQGLEWMGGIFALFGTTDYAQKFQGRVTITADESSTTVYLELSSLTSEDTAVYYCARGSGYTTRNYFDYWGQGTLVTVSS
VL: EIVLTQSPGTLSLSPGERATLSCRASQSVSSNYLGWYQQKPGQAPRLLIYGASSRASGIPDRFSGGGSGTDFTLTISRLEPEDFAVYYCQQYGSSPLTFGGGTKVEIKR
As for B3, the “OD 492 nm” value in assay [2] turned out to be 0.08 OD 492 nm.

B4: CR6325 (antibody, V domains shown)
VH: EVQLVESGAEVKKPGSSVKVSCKASGGTFSFYSMSWVRQAPGQGLEWMGGIIPMFGTTNYAQKFQGRVTITAVESTSTAYMEVSSLRSEDTAVYYCARGDKGIYYYYMDVWGKGTTVTVSS
VL: QSALTQPASVSGSPGQSITISCTGTSSDVGGYNYVSWYQQHPGKAPKLMIYEVSNRPSGVSNRFSGSKSGNTASLTISGLQAEDEADYYCSSYTSSSTLVFGTGTKVTVLG
With B4, the “OD 492 nm” value in assay [2] is 0.07 OD 492 nm.

B5: CR6268 (antibody, V domains shown)
VH: QVQLVQSGAEVKKPGSSVKVSCKASGGTFSSYAISWVRQAPGQGLEWMGGIMGMFGTTNYAQKFQGRVTITADEFTSAAYMELRSLRSEDTAVYYCARSSGYYPEYFQDWGQGTLVTVSS
VL: QSVLTQPPSESVSPGQTASVTCSGHKLGDKYVSWYQQKPGQSPVLLIYQDNRRPSGIPERFIGSNSGNTATLTISGTQALDEADYYCQAWDSSTAVFGGGTKLTVLG
With B5, in assay [3], the “flow cytometry signal at 0.1 µg/ml” value stood at 43.7, the “flow cytometry signal at 1 µg/ml” value was 219 and the “flow cytometry signal at 10 µg/ml” value was found to be 422. Further, in assay [1], the “OD 492 nm” value is 1.3 OD 492 nm. In assay [2], the “OD 492 nm” value came out at 0.08 OD 492 nm. In addition, the “OD 492 nm” value in assay [4] was 1.78 OD 492 nm.

B6: CR6336 (antibody, V domains shown)
VH: QMQLVQSGAEVKKPGSSVKVSCKASGGTFSSYAISWVRQAPGQGLEWMGGIFGMFGTANYAQKFQGRVTITADEFTSAAYMELSSLGSEDTAMYYCARSSGYYPQYFQDWGQGTLVTVSS
VL: EIVMTQSPGTLSLSPGQRATLSCRASQSVSSSYLAWYQQKPGQAPRLLMYGASSRATGIPDRFSGSGSGTDFTLTISRLEPEDFAVYYCQQYGSSSLTFGGGTKLEIKR
Turning to B6, the “OD 492 nm” value amounted to 1.41 OD 492 nm in assay [1], 0.1 OD 492 nm in assay [2] and 1.92 OD 492 nm in assay [4].

B7: CR6344 (antibody, V domains shown)
VH: QVQLVQSGAEVKKPGSSVRVSCKASGSIFRNYAMSWVRQAPGQGLEWMGGIIAIFGTPKYAQKFQGRVTITADESTSTVYMELSGLRSEDTAMYYCARIPHYNFGSGSYFDYWGQGTLVTVSS
VL: TVLTQPPSVSGAPGQRVTISCTGSSSNIGAGYDVHWYQQLPGTAPKLLIYGNSNRPSGVPDRFSGSKSGTSATLGITGLQTGDEADYYCGTWDSSLSAYVFGTGTKVTVLG
As to B7, in assay [3], the “flow cytometry signal at 0.1 µg/ml” value was determined as 107, the “flow cytometry signal at 1 µg/ml” value came out at 328 and the “flow cytometry signal at 10 µg/ml” value is 768. Further, the “OD 492 nm” value in assay [1] worked out at 1.31 OD 492 nm. Also, the “OD 492 nm” value in assay [2] is 0.09 OD 492 nm. Also, the “OD 492 nm” value in assay [4] amounted to 1.8 OD 492 nm.

B8: CR6262 (antibody, V domains shown)
VH: QVQLQQSGAEVKKPGSSVKVSCKVSGVIFSGSAISWVRQAPGQGLEWMGGISPLFGTTNYAQKFQGRVTITADQSTNTTYMEVNSLRYEDTAVYFCARGPKYYSEYMDVWGKGTTVTVSS
VL: DIQMTQSPSSLSASVGDRVTITCRASQGISSYLAWYQQKPGKVPTLLIYDASTLRSGVPSRFSGSGSATDFTLTISSLQPEDVATYYCQRYNSAPPITFGQGTRLEIKR
Consider B8, for which, in assay [3], the “flow cytometry signal at 0.1 µg/ml” value is 8.06, the “flow cytometry signal at 1 µg/ml” value is 20.9 and the “flow cytometry signal at 10 µg/ml” value worked out at 84.3. Moreover, in assay [1], the “OD 492 nm” value is 1.02 OD 492 nm. Also, in assay [2], the “OD 492 nm” value came out at 0.09 OD 492 nm. The “OD 492 nm” value in assay [4] turned out to be 1.48 OD 492 nm.

B9: CR6255 (antibody, V domains shown)
VH: EVQLVESGAEVKKPGSSVKVSCKASGGPFRSYAISWVRQAPGQGPEWMGGIIPIFGTTKYAPKFQGRVTITADDFAGTVYMELSSLRSEDTAMYYCAKHMGYQVRETMDVWGKGTTVTVSS
VL: SYVLTQPPSASGTPGQRVTISCSGSTFNIGSNAVDWYRQLPGTAPKLLIYSNNQRPSGVPDRFSGSRSGTSASLAISGLQSEDEADYYCAAWDDILNVPVFGGGTKLTVLG
Consider B9, for which, in assay [3], the “flow cytometry signal at 0.1 µg/ml” value was 60.4, the “flow cytometry signal at 1 µg/ml” value was determined as 257 and the “flow cytometry signal at 10 µg/ml” value is 414. In assay [1], the “OD 492 nm” value was determined as 1.44 OD 492 nm. In addition, the “OD 492 nm” value in assay [2] is 0.08 OD 492 nm. The “OD 492 nm” value in assay [4] is 1.91 OD 492 nm.

B10: CR6310 (antibody, V domains shown)
VH: EVQLVESGAEVKKPGSSVKVSCKASGGPFRSYAISWVRQAPGQGPEWMGGIIPIFGTTKYAPKFQGRVTITADDFAGTVYMELSSLRSEDTAMYYCAKHMGYQVRETMDVWGKGTTVTVSS
VL: SYVLTQPPSVSVAPGQTARITCGGNNIGSKSVHWYQQKPGQAPVLVVYDDSDRPSGIPERFSGSNSGNTATLTISRVEAGDEADYYCQVWDSSSDHAVFGGGTQLTVLG
On to B10, for which the “OD 492 nm” value in assay [1] stood at 1.37 OD 492 nm; in assay [2] it was 0.08 OD 492 nm.

B11: CR6314 (antibody, V domains shown)
VH: EVQLVESGAEVKKPGSSVKVSCKASGGPFRSYAISWVRQAPGQGPEWMGGIIPIFGTTKYAPKFQGRVTITADDFAGTVYMELSSLRSEDTAMYYCAKHMGYQVRETMDVWGKGTTVTVSS
VL: SYVLTQPPSASGTPGQRVTISCSGSSSNIGSNYVYWYQQLPGTAPKLLIYRDGQRPSGVPDRFSGSKSGTSASLAISGLRSDDEADYYCATWDDNLSGPVFGGGTKLTVLG
As to B11, in assay [3], the “flow cytometry signal at 0.1 µg/ml” value was found to be 44.5, the “flow cytometry signal at 1 µg/ml” value amounted to 167 and the “flow cytometry signal at 10 µg/ml” value is 400. Also, the “OD 492 nm” value in assay [1] came out at 1.48 OD 492 nm. In addition, the “OD 492 nm” value in assay [2] is 0.07 OD 492 nm. In addition, in assay [4], the “OD 492 nm” value is 1.93 OD 492 nm.

B12: CR6261 (antibody, V domains shown)
VH: EVQLVESGAEVKKPGSSVKVSCKASGGPFRSYAISWVRQAPGQGPEWMGGIIPIFGTTKYAPKFQGRVTITADDFAGTVYMELSSLRSEDTAMYYCAKHMGYQVRETMDVWGKGTTVTVSS
VL: QSVLTQPPSVSAAPGQKVTISCSGSSSNIGNDYVSWYQQLPGTAPKLLIYDNNKRPSGIPDRFSGSKSGTSATLGITGLQTGDEANYYCATWDRRPTAYVVFGGGTKLTVLG
For B12, the “OD 492 nm” value in assay [2] amounted to 0.07 OD 492 nm.

B13: CR6260 (antibody, V domains shown)
VH: EVQLVESGAEVKKPGSSVKVSCKASGGPFRSYAISWVRQAPGQGPEWMGGIIPIFGTTKYAPKFQGRVTITADDFAGTVYMELSSLRSEDTAMYYCAKHMGYQVRETMDVWGKGTTVTVSS
VL: SYVLTQPPSVSGTPGQRVTISCSGSRSNVGDNSVYWYQHVPEMAPKLLVYKNTQRPSGVPARFSGSKSGTSASLAIIGLQSGDEADYYCVAWDDSVDGYVFGSGTKVTVLG
With B13, in assay [3], the “flow cytometry signal at 0.1 µg/ml” value turned out to be 31.1, the “flow cytometry signal at 1 µg/ml” value stood at 168 and the “flow cytometry signal at 10 µg/ml” value was found to be 323. The “OD 492 nm” value in assay [1] was found to be 1.45 OD 492 nm. Also, the “OD 492 nm” value in assay [2] was 0.08 OD 492 nm.

B14: CR6334 (antibody, V domains shown)
VH: EVQLVETGAEVKKPGSSVKVPCKSSGSPFRSNAVSWVRQAPGQGLEWVGGILGVFGSPSYAQKFQGRVTITADESTNTVHMELRGLRSEDTAVYYCARGPTYYYSYMDVWGKGTTVTVSS
VL: SYVLTQPPSESVAPGQTARITCGGNNIGRNSVHWYQQKPGQAPVLVVYDDSDRPSGIPERFSGSKSGNTATLIISRVEVGDEADYYCQVWHSSSDHYVFGTGTKVTVLG
Regarding B14, the “OD 492 nm” value came to 1.19 OD 492 nm in assay [1], 0.07 OD 492 nm in assay [2] and 2.04 OD 492 nm in assay [4].

B15: CR6328 (antibody, V domains shown)
VH: EVQLVESGAEVKKPGSSVKVSCKASGHIFSGYAISWVRQAPGQGLEWMGGIIPIFGTTNYAQKFQGRVTITADQSTSTAYMDLSNLRSEDTAVYYCARVKDGYCTLTSCPVGWYFDLWGRGTLVTVSS
VL: not shown
Turning to B15, the “OD 492 nm” value came to 1.78 OD 492 nm in assay [1], 0.07 OD 492 nm in assay [2] and 2.43 OD 492 nm in assay [4].

B16: CR6332 (antibody, V domains shown)
VH: QVQLVQSGAEVKKPGSSVKVSCKASGGPFRNFAINWVRQAPGQGLEWMGGIIAVFGTTKYAHKFQGRVTITADDSTNTAYMELGSLKSEDTAVYYCARGPHYYSSYMDVWGEGTTVTVSS
VL: DIQLTQSPSSLSASVGDRVTITCRASQGISTYLAWYQQKPGKVPKLLIYAASTLQSGVPSRFSGSGSGTDFTLTISSLQPEDVATYYCQKYNSAPSFGPGTKVDIKR
Take B16: the “OD 492 nm” value amounted to 1.65 OD 492 nm in assay [1], 0.15 OD 492 nm in assay [2] and 2.2 OD 492 nm in assay [4].

The values are drawn from patent US20090311265A1 (CRUCELL HOLLAND B V, published 2009).
